Measured values: patent US20260308536A1, “NOVEL URICASE VARIANTS AND METHODS OF USE THEREOF” (priority 2023, published 2026)

Key:
Conditions in all cases: other: role: substrate; non-PEGylated; Table 8B; pH 10.5
[1] = substrate: O=c1[nH]c(=O)c2[nH]c(=O)[nH]c2[nH]1; assay: Michaelis-Menten kinetics, MedU_1F1; type: biochemical, Arthrobacter globiformis
Procedure: (§1) Select Arthrobacter globiformis uricase variants MedU_1B7, MedU_5B8, MedU_1C2, MedU_5C9, MedU_5E6, MedU_5E9, and MedU_IF1 were subject to further characterization by comparing their expression yields, Michaelis-Menten kinetics parameters, and thermostability measured by temperatures at which 50% of normal activity was lost determined by heat stress activity assay, with those of the wild type Arthrobacter globiformis uricase. The expression yields were determined as described above in the “Methods” section. The Michaelis-Menten kinetics parameters kcat and KM, and temperatures at which 50% of normal activity was lost (i.e., 50% thermal inactivation temperatures, referred to as TI50 (° C.)) measured by heat stress activity assay were likewise determined using the methods described in Example 1.

[2] = substrate: O=c1[nH]c(=O)c2[nH]c(=O)[nH]c2[nH]1; assay: Michaelis-Menten kinetics, MedU_5C9; type: biochemical, Arthrobacter globiformis
Procedure: as §1

[3] = substrate: O=c1[nH]c(=O)c2[nH]c(=O)[nH]c2[nH]1; assay: Michaelis-Menten kinetics, wild type Arthrobacter globiformis uricase; type: biochemical
Source text: Non-PEGylated deimmunized Arthrobacter globiformis uricase variants were created by introducing additional amino acid substitutions into the R49S variant Arthrobacter globiformis uricase of SEQ ID NO:6 disclosed in Nyborg et al., PLOS One, 2016, DOI: 10.1371/journal.pone.0167935. For ease of description, the R49S variant Arthrobacter globiformis uricase of SEQ ID NO:6 is referred to as the wild type Arthrobacter globiformis uricase herein, as it serves as the enzyme being mutated to arrive at the variants. The monomeric form of the wild type Arthrobacter globiformis uricase comprises the amino acid sequence of SEQ ID NO:6, where methionine is residue #1. The specified mutations in the Arthrobacter globiformis uricase variants of this example are indexed to methionine as residue #1, as in SEQ ID NO:6. […]
Select Arthrobacter globiformis uricase variants MedU_1B7, MedU_5B8, MedU_1C2, MedU_5C9, MedU_5E6, MedU_5E9, and MedU_IF1 were subject to further characterization by comparing their expression yields, Michaelis-Menten kinetics parameters, and thermostability measured by temperatures at which 50% of normal activity was lost determined by heat stress activity assay, with those of the wild type Arthrobacter globiformis uricase. The expression yields were determined as described above in the “Methods” section. […]

[4] = substrate: O=c1[nH]c(=O)c2[nH]c(=O)[nH]c2[nH]1; assay: Michaelis-Menten kinetics, MedU_5E9; type: biochemical, Arthrobacter globiformis
Procedure: as §1

[5] = substrate: O=c1[nH]c(=O)c2[nH]c(=O)[nH]c2[nH]1; assay: Michaelis-Menten kinetics, MedU_5B8; type: biochemical, Arthrobacter globiformis
Procedure: as §1

B1: Arthrobacter globiformis uricase variant MedU_1F1, A35D/A83G/L89G/V195E/Y203H/A204E/A213G/L220H/I243V/K244S/K250N, SEQ ID NO: 95 (Arthrobacter globiformis; … (protein)
chain: MTATAETSTGTKVVLGQNQYGKAEVRLVKVTRNTDRHEIQDLNVTSQLSGDFEAAHTAGDNAHVVATDTQKNTVYAFARDGFGTTEEFGLRLGKHFTEGFDWVTGGRWAAQQFFWDRINDHDHAFSRNKSEVRTAVLEISGSEQAIVAGIEGLTVLKSTGSEFHGFPRDKYTTLQETTDRILATDVSARWRYNTEEVDFDAVHESVRGLLLKGFAETHSHALQQTMYEMGRAVIETHPEIDEVSMSLPNNHHFLVDLQPFGQDNPNEVFYAADRPYGLIEATIQREGSRAD
notes: R49S backbone, 291 aa; pET-26b(+), C-terminal His6, E. coli; non-PEGylated
Km [1]: 370 ± 60 µM
kcat [1]: 2.5 ± 0.1 s⁻¹

B2: Arthrobacter globiformis uricase variant MedU_5C9, A35D/A145H/A148S/V195D/A204D/A213G/K244S/K250N, SEQ ID NO: 144 (Arthrobacter globiformis; … (protein)
chain: MTATAETSTGTKVVLGQNQYGKAEVRLVKVTRNTDRHEIQDLNVTSQLSGDFEAAHTAGDNAHVVATDTQKNTVYAFARDGFATTEEFLLRLGKHFTEGFDWVTGGRWAAQQFFWDRINDHDHAFSRNKSEVRTAVLEISGSEQHIVSGIEGLTVLKSTGSEFHGFPRDKYTTLQETTDRILATDVSARWRYNTDEVDFDAVYDSVRGLLLKGFAETHSLALQQTMYEMGRAVIETHPEIDEISMSLPNNHHFLVDLQPFGQDNPNEVFYAADRPYGLIEATIQREGSRAD
notes: as for B1
Km [2]: 340 ± 80 µM
kcat [2]: 2.4 ± 0.1 s⁻¹

B3: Arthrobacter globiformis uricase, wild type (R49S variant, referred to as wild type), SEQ ID NO: 6 (Arthrobacter globiformis; R49S) (protein)
chain: MTATAETSTGTKVVLGQNQYGKAEVRLVKVTRNTARHEIQDLNVTSQLSGDFEAAHTAGDNAHVVATDTQKNTVYAFARDGFATTEEFLLRLGKHFTEGFDWVTGGRWAAQQFFWDRINDHDHAFSRNKSEVRTAVLEISGSEQAIVAGIEGLTVLKSTGSEFHGFPRDKYTTLQETTDRILATDVSARWRYNTVEVDFDAVYASVRGLLLKAFAETHSLALQQTMYEMGRAVIETHPEIDEIKMSLPNKHHFLVDLQPFGQDNPNEVFYAADRPYGLIEATIQREGSRAD
notes: His6 (C); made in house; host or cells: E. coli
Km [3]: 270 ± 80 µM
kcat [3]: 2.3 ± 0.2 s⁻¹

B4: Arthrobacter globiformis uricase variant MedU_5E9, N33E/A35D/A83G/A145T/A148S/V195D/A204D/A213G/L220K/K244S/Y270H, SEQ ID NO: 164 (Arthrobacter globiformis; … (protein)
chain: MTATAETSTGTKVVLGQNQYGKAEVRLVKVTRETDRHEIQDLNVTSQLSGDFEAAHTAGDNAHVVATDTQKNTVYAFARDGFGTTEEFLLRLGKHFTEGFDWVTGGRWAAQQFFWDRINDHDHAFSRNKSEVRTAVLEISGSEQTIVSGIEGLTVLKSTGSEFHGFPRDKYTTLQETTDRILATDVSARWRYNTDEVDFDAVYDSVRGLLLKGFAETHSKALQQTMYEMGRAVIETHPEIDEISMSLPNKHHFLVDLQPFGQDNPNEVFHAADRPYGLIEATIQREGSRAD
notes: as for B1
Km [4]: 800 ± 100 µM
kcat [4]: 6.0 ± 0.4 s⁻¹

B5: Arthrobacter globiformis uricase variant MedU_5B8, A35D/A83G/A145T/A148S/V195E/A204D/A213G/L220H/I243V/K244S, SEQ ID NO: 134 (Arthrobacter globiformis; … (protein)
chain: MTATAETSTGTKVVLGQNQYGKAEVRLVKVTRNTDRHEIQDLNVTSQLSGDFEAAHTAGDNAHVVATDTQKNTVYAFARDGFGTTEEFLLRLGKHFTEGFDWVTGGRWAAQQFFWDRINDHDHAFSRNKSEVRTAVLEISGSEQTIVSGIEGLTVLKSTGSEFHGFPRDKYTTLQETTDRILATDVSARWRYNTEEVDFDAVYDSVRGLLLKGFAETHSHALQQTMYEMGRAVIETHPEIDEVSMSLPNKHHFLVDLQPFGQDNPNEVFYAADRPYGLIEATIQREGSRAD
notes: as for B1
Km [5]: 390 ± 80 µM
kcat [5]: 3.9 ± 0.2 s⁻¹
